Assay results published in patent publication US8110672B2, “Promoter engineering and genetic control” (priority 2005, dated 2012).

Key:
[1] = tested on: gfp
Experimental: Shake flasks containing 50 mL of M9G/CAA medium were inoculated with 1% v/v of an overnight LB culture of a library clone. The culture turbidity (A600 nm) and fluorescence (Packard Fusion microplate fluorescence reader, Perkin-Elmer, Boston, Ma.) were monitored as a function of time. Fluorescence readings taken during the exponential growth phase were plotted as a function of turbidity. The best-fit slope to this line represents the exponential-phase steady-state concentration of GFP, fSS. Because fSS is affected by the cell growth rate, oxygen-dependent maturation constant of GFP, and the protease-mediated degradation of GFP as well as the promoter-driven synthesis of new GFP, it is not a suitable metric for promoter strength. […] Under this model and under the assumption that the rate constant of protease-mediated degradation is the same for mature GFP as its precursor polypeptide, P, the rate of promoter-driven production of GFP, can be expressed as in Equation 1.
In Equation 1, μ is the growth rate, m is maturation constant for oxygen-dependent fluorophore activation of GFP, D is the first-order rate constant for protease-mediated degradation. […] The parameters fSS and μ were measured separately for each member of the promoter library. P, in relative fluorescence units per absorbance unit per hour, was calculated from Equation 1 for each clone. […]

[2] = tested on: gfp transcript; assay: Transcriptional analysis: quantitative RT-PCR of the gfp transcript; format: cell-based, E. coli; conditions: cultures grown 3 hours, relative level
Experimental: Cultures inoculated as previously were grown for 3 hours and the total RNA was extracted from a 1.5 mL sample with a commercial kit (RNEasy, Qiagen Corp). All samples were diluted to a final concentration of 20 μg/mL and stored at −20° C. A commercial kit for RT-PCR (iScript One-Step RT-PCR Kit with SYBR Green, Bio-Rad) was used with a CCD-equipped thermal cycler (iCycler, Bio-Rad) for RT-PCR of the gfp transcript. Primers (sense-[…] (SEQ ID NO: 4) and antisense-[…] (SEQ ID NO: 5)) were used at a final concentration of 100 nM and 20 ng of RNA was used as template in each 50 μL reaction. We performed duplicate cultures for each clone and duplicate extractions for each culture. The threshold cycles for each sample were calculated from the fluorescence data with proprietary software (Bio-Rad, Inc).
To characterize the promoter library directly at the transcriptional level, the relative mRNA levels of gfp transcripts in the above cultures were determined by quantitative RT-PCR. The high correlation between fluorescence and mRNA level (FIG. 4) confirmed that expression was transcriptionally controlled. The data was obtained where GFP fluorescence levels were modulated by the level of oxygen. In this way, selection for promoters, which had differential expression in high and low oxygen conditions was accomplished.

[3] = tested on: CAT; assay: Chloramphenicol resistance of pZE-promoter-cat constructs (MIC on LB agar); format: cell-based, E. coli; conditions: lowest chloramphenicol concentration that inhibited growth; promoter driving cat, LB agar with kanamycin, overnight 37° C.
Experimental: pZE-promoter-cat plasmids were created by PCR of the CAT gene from pACYC184 using primers CAT_Sense_MluI: […] (SEQ ID NO: 6) and CAT_Anti_KpnI: […] (SEQ ID NO: 7) and ligated into the proper pZE-promoter construct which was previously digested by KpnI and MluI. Exponential-phase cultures grown in LB supplemented with kanamycin were plated onto LB agar supplemented with kanamycin and various concentrations of chloramphenicol ranging from 0 to 500 μg/ml. After overnight incubation at 37° C., the lowest concentration of chloramphenicol that inhibited the growth of a clone was recorded.
To verify the constitutive nature of all the promoters, each was redeployed into a new construct driving the reporter gene cat. Cultures bearing these constructs were assayed for resistance to chloramphenicol on a rich, solid-phase medium. […] Moreover, these conditions test the promoter library in contrasting medium and growth environments (liquid minimal medium vs. solid complex medium) further underscoring the constitutive nature of the library promoters.

B1: PLTetO1: PLteto-1 promoter, sequence SEQ ID NO: 34, relative to which the mutated promoters are defined (nucleic acid)
DNA: CAATTCCGACGTCTAAGAAACCATTATTATCATGACATTAACCTATAAAAATAGGCGTATCACGAGGCCCTTTCGTCTTCACCTCGAGTCCCTATCAGTGATAGAGATTGACATCCCTATCAGTGATAGAGATACTGAGCACATCAGCAGGACGCACTGACC
modifications: mutant sequence of bacteriophage lambda tetO promoter
[1]; P from Equation 1, pZE-promoter-gfp(ASV) plasmid, M9G/CAA medium, exponential phase, duplicate cultures
  Promoter Strength: 145,806.85 relative fluorescence units per absorbance unit per hour
[1]; average of the scaled mRNA and fluorescence data
  Average Promoter Metric: 0.8685
[2]
  Relative mRNA: 1
[3]
  Cm MIC: 338 µg/mL
